Drawing on PMC2779587, “Domain Requirements and Sequence Specificity of DNA Binding for the Forkhead Transcription Factor FOXP3”, this text covers binding result and binding signal for seven molecules.

Data set [1] concerns the target FOXP3 full length (human, UniProt Q9BZS1 1-431). Description: EMSA; 12 mM HEPES pH 7.5, 100 mM NaCl, 1 mM DTT, 1 mM EDTA, 12% glycerol, 20 µg/ml poly(dI)-poly(dC), room temperature 20 min. To be noted: protein: ivt; chain copies: 2; label: 32P 5' end; blunt.
Data set [2] concerns the target T1, FOXP3-ΔN (human, UniProt Q9BZS1 182-431). The data set is described as above. The note with it: protein: ivt; chain copies: 2; label: 32P 5' end; blunt.
In data set [3] the target is T1, FOXP3-ΔN. The description is as above. The note with it: protein: ivt; chain copies: 2; label: 32P 5' end; blunt. This is another data set of the same source.
For data set [4], the target named is Foxp1A full length (mouse, UniProt P58462 1-705). The data set is described as above. The note with it: protein: ivt; tags: HA; chain copies: 2; label: 32P 5' end; blunt.
Foxp1A full length, sequence (P58462 whole entry, the tested form may be a part): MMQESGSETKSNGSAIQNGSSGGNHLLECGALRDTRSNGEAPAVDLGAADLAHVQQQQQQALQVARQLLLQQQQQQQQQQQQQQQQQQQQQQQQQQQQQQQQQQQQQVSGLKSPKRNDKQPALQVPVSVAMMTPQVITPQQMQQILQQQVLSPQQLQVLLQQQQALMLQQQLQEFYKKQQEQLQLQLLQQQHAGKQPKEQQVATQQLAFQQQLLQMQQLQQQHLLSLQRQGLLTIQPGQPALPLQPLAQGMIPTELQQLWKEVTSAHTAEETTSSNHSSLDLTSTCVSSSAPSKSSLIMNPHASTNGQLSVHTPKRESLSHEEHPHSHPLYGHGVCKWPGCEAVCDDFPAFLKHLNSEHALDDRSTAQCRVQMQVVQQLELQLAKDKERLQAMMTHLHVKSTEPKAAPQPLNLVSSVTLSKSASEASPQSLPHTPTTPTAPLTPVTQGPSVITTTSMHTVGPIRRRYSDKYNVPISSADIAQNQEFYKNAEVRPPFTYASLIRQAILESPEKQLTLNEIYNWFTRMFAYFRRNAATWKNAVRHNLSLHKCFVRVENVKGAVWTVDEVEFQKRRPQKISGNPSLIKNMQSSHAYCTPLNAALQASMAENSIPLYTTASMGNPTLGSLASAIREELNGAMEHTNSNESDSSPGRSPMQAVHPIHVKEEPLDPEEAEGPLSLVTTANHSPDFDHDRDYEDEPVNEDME
Data set [5] deals with T2, FOXP3 FKH domain (UniProt Q9BZS1 337-423).
T2 sequence: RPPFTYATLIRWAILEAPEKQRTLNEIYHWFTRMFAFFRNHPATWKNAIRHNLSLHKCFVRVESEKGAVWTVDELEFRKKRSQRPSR
Described as above. To be noted: chain copies: 2; label: 32P 5' end; blunt.

The target of data set [6] is T1, FOXP3-ΔN. The data set is described as above. The note with it: protein: ivt; chain copies: 2; label: 32P 5' end; blunt. The source holds these as a separate data set.
Data set [7] deals with FOXP3-ΔN delE251 (human, UniProt Q9BZS1 182-431, del251-251). Described as above. To be noted: protein: ivt; chain copies: 2; label: 32P 5' end; blunt.
FOXP3-ΔN delE251, sequence (Q9BZS1 other isoform, or with tags, fused parts or gaps del251-251 | mutant): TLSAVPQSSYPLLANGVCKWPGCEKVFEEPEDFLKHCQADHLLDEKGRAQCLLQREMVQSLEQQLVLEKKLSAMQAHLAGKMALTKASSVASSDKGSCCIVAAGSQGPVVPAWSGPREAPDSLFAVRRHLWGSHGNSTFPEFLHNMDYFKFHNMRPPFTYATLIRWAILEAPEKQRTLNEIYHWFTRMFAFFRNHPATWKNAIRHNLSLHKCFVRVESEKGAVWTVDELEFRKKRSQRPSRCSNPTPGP
The target of data set [8] is FOXP3-ΔN delK250 (human, UniProt Q9BZS1 182-431, del250-250). Described as above. To be noted: protein: ivt; chain copies: 2; label: 32P 5' end; blunt.
FOXP3-ΔN delK250, sequence (Q9BZS1 other isoform, or with tags, fused parts or gaps del250-250 | mutant): as the sequence (Q9BZS1 other isoform, or with tags, fused parts or gaps del251-251 | mutant) above, with K69E counted along it
The target in data set [9] is FOXP3-ΔN ΔFKH (human, UniProt Q9BZS1 182-336). Described as above. To be noted: protein: ivt; label: 32P 5' end; blunt.
FOXP3-ΔN ΔFKH, sequence (Q9BZS1 182-336, stated change not applied): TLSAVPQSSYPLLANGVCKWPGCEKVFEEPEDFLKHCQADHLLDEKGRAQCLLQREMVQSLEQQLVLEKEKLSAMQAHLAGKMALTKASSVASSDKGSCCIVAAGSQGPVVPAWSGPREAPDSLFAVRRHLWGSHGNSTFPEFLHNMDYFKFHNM
Data set [10] deals with FOXP3-ΔN C204S (human, UniProt Q9BZS1 182-431, C204S). Description: EMSA; not influenced by mutation; 12 mM HEPES pH 7.5, 100 mM NaCl, 1 mM DTT, 1 mM EDTA, 12% glycerol, 20 µg/ml poly(dI)-poly(dC), room temperature 20 min. The note with it: protein: ivt; chain copies: 2; label: 32P 5' end; blunt. A general note: In EMSA bound probe runs differently from free probe, usually more slowly.
FOXP3-ΔN C204S, sequence (Q9BZS1 182-431 C204S): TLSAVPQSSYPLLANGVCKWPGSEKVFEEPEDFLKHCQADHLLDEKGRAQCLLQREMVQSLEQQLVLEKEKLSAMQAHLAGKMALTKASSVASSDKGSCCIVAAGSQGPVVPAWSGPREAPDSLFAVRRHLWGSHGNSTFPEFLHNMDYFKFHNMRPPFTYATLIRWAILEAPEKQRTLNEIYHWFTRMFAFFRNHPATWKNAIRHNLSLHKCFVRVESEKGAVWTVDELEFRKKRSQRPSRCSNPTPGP

For data set [11], the target named is T1, FOXP3-ΔN. Description: EMSA; binding more than doubled; 12 mM HEPES pH 7.5, 100 mM NaCl, 1 mM DTT, 1 mM EDTA, 12% glycerol, 20 µg/ml poly(dI)-poly(dC), room temperature 20 min. The note with it: protein: ivt; chain copies: 2; label: 32P 5' end; blunt.

FOXP3 full length, sequence (Q9BZS1 whole entry): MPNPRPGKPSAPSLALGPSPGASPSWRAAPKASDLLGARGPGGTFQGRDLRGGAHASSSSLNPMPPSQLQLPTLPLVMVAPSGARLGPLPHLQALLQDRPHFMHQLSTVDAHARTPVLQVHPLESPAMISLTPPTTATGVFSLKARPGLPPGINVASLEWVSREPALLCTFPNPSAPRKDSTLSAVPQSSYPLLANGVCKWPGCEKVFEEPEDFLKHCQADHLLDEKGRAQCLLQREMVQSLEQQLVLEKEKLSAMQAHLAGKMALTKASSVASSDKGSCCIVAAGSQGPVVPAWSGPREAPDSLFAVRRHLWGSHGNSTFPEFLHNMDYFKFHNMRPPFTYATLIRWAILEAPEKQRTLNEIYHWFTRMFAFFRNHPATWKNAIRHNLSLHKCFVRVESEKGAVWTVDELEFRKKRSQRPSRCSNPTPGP
T1 sequence (Q9BZS1 182-431, stated change not applied): as the sequence (Q9BZS1 182-431 C204S) above, with S23C counted along it

B1: A'' (A2-A2) (dsDNA)
DNA 1: CAAGACAAATAAGACAACACAAATAA
DNA 2: TTATTTGTGTTGTCTTATTTGTCTTG
In the case of B1, the binding result in data set [1] and in [2] was “no binding” throughout.

B2: A' (AT) (dsDNA)
DNA 1: CAAGATAAACAAGACAACATAAACAA
DNA 2: TTGTTTATGTTGTCTTGTTTATCTTG
As for B2, the binding signal in [3] is < 0.5 fold versus A' (GT).

B3: A (A1-A2) (dsDNA)
DNA 1: CAAGGTAAACAAGACAACACAAATAA
DNA 2: TTATTTGTGTTGTCTTGTTTACCTTG
Turning to B3, the binding result was “binds” in data set [4], “no binding” in data set [5] and “no binding” in data set [1].

B4: A' (25 bp), 10-bp spacing (dsDNA)
DNA 1: CAAGGTAAACAAGAGTAAACAAGTC
DNA 2: GACTTGTTTACTCTTGTTTACCTTG
B4 had a binding signal in [6] of roughly 3 fold versus 14-bp spacing.

B5: A' (35 bp), 20-bp spacing (dsDNA)
DNA 1: CAAGGTAAACAAGACAACACGATTGTAAACAAGTC
DNA 2: GACTTGTTTACAATCGTGTTGTCTTGTTTACCTTG
Regarding B5, the binding signal in data set [6] was roughly 3 fold versus 14-bp spacing.

B6: A' (A1-A1) (dsDNA)
DNA 1: CAAGGTAAACAAGACAACGTAAACAA
DNA 2: TTGTTTACGTTGTCTTGTTTACCTTG
B6: the binding result was “no binding” in [1]; “no binding” in data set [7]; “no binding” in [8]; “no binding” in data set [9]; “binds” in data set [10]. In [11], this molecule returned a binding signal greater than 2 fold versus A probe.

B7: A' (GC) (dsDNA)
DNA 1: CAAGGCAAACAAGACAACGCAAACAA
DNA 2: TTGTTTGCGTTGTCTTGTTTGCCTTG
As for B7, in [2], the binding result was “no binding”.
